Source: paper PMC2667179

Biological target: sucrose synthase (Nicotiana tabacum (endogenous in BY-2 cells))
Experiment: native gel or EMSA; two-dimensional blue native PAGE (4-14.5% gradient, 4°C) then SDS-PAGE of BY-2 plasma membrane proteins solubilized with 1% n-octyl-beta-D-glucopyranoside (750 mM amino caproic acid, 100 mM BisTris pH 7.0); subunits detected by immunoblotting on separate blots; association judged by comigration

stoichiometry N: 4
Substance: sucrose synthase (enzyme)
